The values that follow come from patent US20240018502A1.

B1: MTSP-1 protease domain Q38K/I41S/Y60gW/F99L/C122S/G151N/Q192G (enzyme)
chain: VVGGTDADEGEWPWQVSLHALGKGHSCGASLISPNWLVSAAHCYIDDRGFRWSDPTQWTAFLGLHDQSQRSAPGVQERRLKRIISHPFFNDFTLDYDIALLELEKPAEYSSMVRPISLPDASHVFPAGKAIWVTGWGHTQYGGTNALILQKGEIRVINQTTCENLLPQQITPRMMCVGFLSGGVDSCGGDSGGPLSSVEADGRIFQAGVVSWGDGCAQRNKPGVYTRLPLFRDWIKENTGV
B2: MTSP-1 protease domain F99L/C122S/G151N/Q192T (enzyme)
chain: B1 chain with K23Q, S26I, W52Y, G188T
B3: MTSP-1 protease domain I41D/Y59F/F99L/C122S/G151N/Q192T/V213A (enzyme)
chain: B1 chain with K23Q, S26D, Y44F, W52Y, G188T, V210A
B4: MTSP-1 protease domain I41E/F99L/C122S/G151N/Q175R/Q192T (enzyme)
chain: B1 chain with K23Q, S26E, W52Y, Q169R, G188T
B5: MTSP-1 protease domain I41D/D96E/F99L/C122S/G151N/Q192T (enzyme)
chain: B1 chain with K23Q, S26D, W52Y, D91E, G188T
B6: MTSP-1 protease domain I41G/F99L/C122S/G151N/Q175R/Q192A (enzyme)
chain: B1 chain with K23Q, S26G, W52Y, Q169R, G188A
B7: MTSP-1 I41D/Y59F/D96E/F99L/C122S/G151N/Q192T (enzyme)
chain: B1 chain with K23Q, S26D, Y44F, W52Y, D91E, G188T
B8: MTSP-1 protease domain I41D/D96E/F99L/C122S/G151N/Q192T/D217E (enzyme)
chain: B1 chain with K23Q, S26D, W52Y, D91E, G188T, D214E
B9: MTSP-1 protease domain Q38R/I41R/Y60gL/F99L/C122S/G151N/Q192G (enzyme)
chain: B1 chain with K23R, S26R, W52L
B10: MTSP-1 protease domain I41D/G43A/F99L/C122S/G151N/Q192T/P232S/K239R (enzyme)
chain: B1 chain with K23Q, S26D, G28A, W52Y, G188T, P229S, K236R
B11: MTSP-1 protease domain I41D/G43A/D96E/F99L/C122S/G151N/Q192T (enzyme)
chain: B1 chain with K23Q, S26D, G28A, W52Y, D91E, G188T
B12: MTSP-1 protease domain I41D/F99L/C122S/G151N/Q192T/D217E (enzyme)
chain: B1 chain with K23Q, S26D, W52Y, G188T, D214E
B13: MTSP-1 protease domain I41S/F99L/C122S/G151H/Q175L/Q192V (enzyme)
chain: B1 chain with K23Q, W52Y, N145H, Q169L, G188V
B14: MTSP-1 protease domain I41E/F99L/C122S/G151N/Q175G (enzyme)
chain: B1 chain with K23Q, S26E, W52Y, Q169G, G188Q
B15: MTSP-1 protease domain I41E/C122S/G151N/Q175L/Q192A (enzyme)
chain: B1 chain with K23Q, S26E, W52Y, L94F, Q169L, G188A
B16: MTSP-1 protease domain I41D/D96E/C122S/G151N/Q192T (enzyme)
chain: B1 chain with K23Q, S26D, W52Y, D91E, L94F, G188T
B17: MTSP-1 protease domain I41E/F99L/C122S/Q175G/Q192T (enzyme)
chain: B1 chain with K23Q, S26E, W52Y, N145G, Q169G, G188T
B18: MTSP-1 protease domain Q38F/I41S/Y60gA/C122S/G151N/Q192R (enzyme)
chain: B1 chain with K23F, W52A, L94F, G188R
B19: MTSP-1 protease domain I41E/F99L/C122S/G151N/Q175L/Q192A (enzyme)
chain: B1 chain with K23Q, S26E, W52Y, Q169L, G188A
B20: MTSP-1 protease domain D96E/C122S/G151N/Q192T (enzyme)
chain: B1 chain with K23Q, S26I, W52Y, D91E, L94F, G188T
B21: MTSP-1 protease domain I41D/F99L/M117T/C122S/G151N/Q192T/A204D/D217E (enzyme)
chain: B1 chain with K23Q, S26D, W52Y, M112T, G188T, A200D, D214E
B22: MTSP-1 protease domain I41S/F99L/C122S/G151N/Q175P (enzyme)
chain: B1 chain with K23Q, W52Y, Q169P, G188Q
B23: MTSP-1 protease domain Q38K/I41R/Y60gG/F99L/C122S/G151N/Q192G (enzyme)
chain: B1 chain with S26R, W52G
B24: MTSP-1 protease domain Y59F/C122S/G151N/Q192T (enzyme)
chain: B1 chain with K23Q, S26I, Y44F, W52Y, L94F, G188T
B25: MTSP-1 protease domain I41E/F99L/C122S/G151N/Q192V (enzyme)
chain: B1 chain with K23Q, S26E, W52Y, G188V
B26: MTSP-1 protease domain Q38R/I41R/F99L/C122S/G151N/Q192G (enzyme)
chain: B1 chain with K23R, S26R, W52Y
B27: MTSP-1 protease domain I41S/F99M/C122S/G151N/Q175L/Q192G (enzyme)
chain: B1 chain with K23Q, W52Y, L94M, Q169L
B28: MTSP-1 protease domain Q38H/I41S/D60bT/F60eS/Y60gW/D96K/F97G/F99L/C122S/G151H/Q175L/Q192D (enzyme)
chain: B1 chain with K23H, D47T, F50S, D91K, F92G, N145H, Q169L, G188D
B29: MTSP-1 protease domain I41S/F99L/C122S/Q175P/Q192V (enzyme)
chain: B1 chain with K23Q, W52Y, N145G, Q169P, G188V
B30: MTSP-1 protease domain I41D/F99L/C122S/G151N (enzyme)
chain: B1 chain with K23Q, S26D, W52Y, G188Q
B31: MTSP-1 protease domain I41E/F99L/C122S/G151N/Q175G/Q192T (enzyme)
chain: B1 chain with K23Q, S26E, W52Y, Q169G, G188T
B32: MTSP-1 protease domain I41D/F99L/C122S/I136M/G151N/Q192T/D217L/K224R (enzyme)
chain: B1 chain with K23Q, S26D, W52Y, I131M, G188T, D214L, K221R
B33: MTSP-1 protease domain I41G/F99L/C122S/G151N/Q192A (enzyme)
chain: B1 chain with K23Q, S26G, W52Y, G188A
B34: MTSP-1 protease domain I41D/C122S/G151N/Q192T/D217E (enzyme)
chain: B1 chain with K23Q, S26D, W52Y, L94F, G188T, D214E
B35: MTSP-1 protease domain I41S/F99M/C122S/G151N/Q175G/Q192R (enzyme)
chain: B1 chain with K23Q, W52Y, L94M, Q169G, G188R
B36: MTSP-1 protease domain I41S/C122S/G151N/Q175R/Q192R (enzyme)
chain: B1 chain with K23Q, W52Y, L94F, Q169R, G188R
B37: MTSP-1 protease domain I41D/F60eI/D96E/F99L/C122S/G151N/Q192T (enzyme)
chain: B1 chain with K23Q, S26D, F50I, W52Y, D91E, G188T
B38: MTSP-1 protease domain I41E/F99L/C122S/G151N/Q192S (enzyme)
chain: B1 chain with K23Q, S26E, W52Y, G188S
B39: MTSP-1 protease domain Q38R/I41S/Y60gW/F99L/C122S/G151N/Q192E (enzyme)
chain: B1 chain with K23R, G188E
B40: MTSP-1 protease domain I41S/F99M/C122S/G151N/Q175E/Q192R (enzyme)
chain: B1 chain with K23Q, W52Y, L94M, Q169E, G188R
B41: MTSP-1 protease domain I41S/C122S/G151N/Q175D/Q192R (enzyme)
chain: B1 chain with K23Q, W52Y, L94F, Q169D, G188R
B42: MTSP-1 I41D/Y59F/C122S/G151N/Q192T (enzyme)
chain: B1 chain with K23Q, S26D, Y44F, W52Y, L94F, G188T
B43: MTSP-1 protease domain I41E/F99L/C122S/G151N/Q175R/Q192H (enzyme)
chain: B1 chain with K23Q, S26E, W52Y, Q169R, G188H
B44: MTSP-1 protease domain I41S/F99L/C122S/G151N/Q175P/Q192V (enzyme)
chain: B1 chain with K23Q, W52Y, Q169P, G188V
B45: MTSP-1 protease domain I41S/F99M/C122S/G151N/Q175P/Q192S (enzyme)
chain: B1 chain with K23Q, W52Y, L94M, Q169P, G188S
B46: MTSP-1 I41S/D60bT/F60eS/Y60gW/D96K/F97G/ins97aV/T98P/F99L/C122S/G151H/Q175L/Q192D (enzyme)
chain: VVGGTDADEGEWPWQVSLHALGQGHSCGASLISPNWLVSAAHCYIDTRGSRWSDPTQWTAFLGLHDQSQRSAPGVQERRLKRIISHPFFNKGVPLDYDIALLELEKPAEYSSMVRPISLPDASHVFPAGKAIWVTGWGHTQYGGTHALILQKGEIRVINQTTCENLLPQLITPRMMCVGFLSGGVDSCDGDSGGPLSSVEADGRIFQAGVVSWGDGCAQRNKPGVYTRLPLFRDWIKENTGV
B47: MTSP-1 Q38H/D60bT/F60eS/Y60gW/D96K/F97G/ins97aV/T98P/F99L/C122S/G151H/Q175L/Q192D (enzyme)
chain: B46 chain with Q23H, S26I

Positions count from the first letter of the chain named. In names and notes the source's numbering stands.

In this test the target is plasma purified human complement protein C3 (human) (UniProt P01024). Briefly: cell-based or functional assay.
Chain of plasma purified human complement protein C3 (human) (P01024 23-667, chain 1 of 2): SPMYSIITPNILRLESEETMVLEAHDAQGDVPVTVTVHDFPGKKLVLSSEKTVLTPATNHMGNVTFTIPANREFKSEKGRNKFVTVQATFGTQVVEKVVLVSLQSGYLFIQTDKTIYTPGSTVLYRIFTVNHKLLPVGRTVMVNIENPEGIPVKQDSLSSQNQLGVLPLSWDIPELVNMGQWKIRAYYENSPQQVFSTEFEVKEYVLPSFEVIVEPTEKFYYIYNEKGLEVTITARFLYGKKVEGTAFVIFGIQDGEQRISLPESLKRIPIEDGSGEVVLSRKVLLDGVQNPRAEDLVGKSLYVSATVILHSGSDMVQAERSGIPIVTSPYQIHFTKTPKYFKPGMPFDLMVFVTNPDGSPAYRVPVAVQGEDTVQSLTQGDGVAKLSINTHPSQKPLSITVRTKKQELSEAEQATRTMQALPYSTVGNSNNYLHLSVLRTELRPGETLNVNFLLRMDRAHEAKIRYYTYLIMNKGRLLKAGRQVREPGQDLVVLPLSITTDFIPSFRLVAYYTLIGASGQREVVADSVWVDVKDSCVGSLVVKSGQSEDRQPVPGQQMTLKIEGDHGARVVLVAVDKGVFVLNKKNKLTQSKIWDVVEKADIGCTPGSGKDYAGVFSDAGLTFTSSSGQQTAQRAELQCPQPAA
Chain of plasma purified human complement protein C3 (human) (P01024 672-1663, chain 2 of 2): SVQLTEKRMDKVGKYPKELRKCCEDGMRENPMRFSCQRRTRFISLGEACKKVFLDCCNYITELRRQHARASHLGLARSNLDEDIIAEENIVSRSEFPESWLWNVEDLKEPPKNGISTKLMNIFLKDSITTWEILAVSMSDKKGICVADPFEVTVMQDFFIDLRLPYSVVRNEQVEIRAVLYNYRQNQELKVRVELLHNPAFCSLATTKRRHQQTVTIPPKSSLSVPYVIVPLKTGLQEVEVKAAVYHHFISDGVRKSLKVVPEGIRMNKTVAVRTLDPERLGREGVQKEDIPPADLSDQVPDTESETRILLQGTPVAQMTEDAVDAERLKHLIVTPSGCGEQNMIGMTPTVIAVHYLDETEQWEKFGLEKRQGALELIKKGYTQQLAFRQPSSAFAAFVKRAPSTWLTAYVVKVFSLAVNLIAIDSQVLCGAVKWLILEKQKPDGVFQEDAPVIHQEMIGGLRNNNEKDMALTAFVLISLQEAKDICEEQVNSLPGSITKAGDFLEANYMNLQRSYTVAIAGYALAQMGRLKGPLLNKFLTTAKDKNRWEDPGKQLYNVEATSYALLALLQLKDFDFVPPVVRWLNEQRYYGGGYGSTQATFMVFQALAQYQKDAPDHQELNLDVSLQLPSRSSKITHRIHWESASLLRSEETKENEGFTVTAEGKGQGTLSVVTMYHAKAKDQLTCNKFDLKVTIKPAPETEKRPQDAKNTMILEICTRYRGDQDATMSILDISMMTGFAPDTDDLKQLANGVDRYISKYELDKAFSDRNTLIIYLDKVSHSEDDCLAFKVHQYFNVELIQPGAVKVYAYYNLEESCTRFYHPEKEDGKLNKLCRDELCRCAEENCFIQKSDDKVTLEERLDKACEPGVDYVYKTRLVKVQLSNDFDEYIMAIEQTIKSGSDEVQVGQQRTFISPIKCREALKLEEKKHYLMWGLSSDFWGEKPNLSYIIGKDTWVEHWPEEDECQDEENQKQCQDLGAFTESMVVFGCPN
As to B1, the EC50 hC3 cleavage was found to be 35.1 nM.

Molecule B2 displayed an EC50 hC3 cleavage of 225 nM.

Consider B3, for which the EC50 hC3 cleavage stood at 414 nM.

As for B4, the EC50 hC3 cleavage was 155 nM.

On to B5, for which the EC50 hC3 cleavage was found to be 51.5 nM.

In the case of B6, the EC50 hC3 cleavage stood at 74.5 nM.

In turn, B7 registered an EC50 of hC3 cleavage of 54.9 nM.

In turn, B8 had an EC50 hC3 cleavage of 27.6 nM.

In the case of B9, the EC50 hC3 cleavage amounted to 388 nM.

B10 returned an EC50 hC3 cleavage of 37.6 nM.

In turn, B11 displayed an EC50 hC3 cleavage of 45 nM.

On to B12, for which the EC50 hC3 cleavage worked out at 22 nM.

Turning to B13, the EC50 hC3 cleavage was 20.9 nM.

B14 displayed an EC50 hC3 cleavage of 20 nM.

Regarding B15, the EC50 hC3 cleavage was 45 nM.

The molecule B16 showed an EC50 hC3 cleavage of 78.8 nM.

As to B17, the EC50 hC3 cleavage was found to be 33.9 nM.

Molecule B18 yielded an EC50 hC3 cleavage of 33.1 nM.

In turn, B19 showed an EC50 hC3 cleavage of 28.5 nM.

B20 gave an EC50 hC3 cleavage of 298 nM.

B21 had an EC50 hC3 cleavage of 25.3 nM.

As for B22, the EC50 hC3 cleavage worked out at 13.9 nM.

Turning to B23, the EC50 hC3 cleavage is 335 nM.

In turn, B24 had an EC50 hC3 cleavage of 288 nM.

B25 had an EC50 hC3 cleavage of 156 nM.

With B26, the EC50 hC3 cleavage was found to be 248 nM.

With B27, the EC50 hC3 cleavage was found to be 62 nM.

Turning to B28, the EC50 hC3 cleavage is 7.34 nM.

In the case of B29, the EC50 hC3 cleavage stood at 64.3 nM.

Regarding B30, the EC50 hC3 cleavage was 16.9 nM.

The molecule B31 showed an EC50 hC3 cleavage of 30.2 nM.

The molecule B32 displayed an EC50 hC3 cleavage of 32.2 nM.

B33: the EC50 hC3 cleavage amounted to 61 nM.

As to B34, the EC50 hC3 cleavage was 34.2 nM.

In turn, B35 came in with an EC50 hC3 cleavage of 95.3 nM.

For B36, the EC50 hC3 cleavage is 134 nM.

In turn, B37 returned an EC50 hC3 cleavage of 47.9 nM.

For B38, the EC50 hC3 cleavage is 112 nM.

B39 gave an EC50 hC3 cleavage of 116 nM.

As for B40, the EC50 hC3 cleavage was determined as 297 nM.

B41: the EC50 hC3 cleavage was 96.8 nM.

B42 gave an EC50 of hC3 cleavage of 56.7 nM.

Turning to B43, the EC50 hC3 cleavage was 102 nM.

The molecule B44 yielded an EC50 hC3 cleavage of 35.8 nM.

B45: the EC50 hC3 cleavage turned out to be 139 nM.

For B46, the EC50 of hC3 cleavage was determined as 17.1 nM.

Take B47: the EC50 of hC3 cleavage is 215 nM.
